Assay [1] addresses T1, sEGFR-MMB (dimeric soluble EGFR ectodomain mimetibody) (human).
T1 construct: also called sEGFR mimetibody; sEGFR-Fc
The assay can be described thus: phage ELISA on coated sEGFR-MMB; second bar with EGF 10 ug/ml as competitor. A general note: An ELISA detects its analyte on a solid surface through an enzyme-linked reagent.

The target in a further assay is T2, b-sEGFR-strep (human, UniProt P00533, biotinylated, sites not given).
T2 construct: soluble ectodomain, monomeric, strep II tag; captured on streptavidin-coated wells; also called strepII-tagged sEGFR; strep II-tagged sEGFR purchased from Research Diagnostics
The assay can be described thus: phage ELISA, biotinylated receptor captured on streptavidin.

Another assay concerns the target T3, biotinylated sEGFR-MMB (human, biotinylated with sulfo-NHS-LC-biotin (sites not given)).
T3 construct: Captured on streptavidin-coated wells in the ELISA; also called b-sEGFR-MMB; b-sEGFR MMB
The assay is described as above.

The next assay concerns the target T4, biotinylated sEGFR-His6 (human, UniProt P00533 25-645, biotinylated (sites not given)).
T4 construct: Captured on streptavidin-coated wells in the ELISA; also called b-sEGFR-His; b-sEGFR-His6
The description is as above.

Assay [2] concerns the target T1, sEGFR-MMB (dimeric soluble EGFR …). The assay can be described thus: phage ELISA on coated sEGFR-MMB, chemiluminescence; background typically <200 units.
Assay [3] shares this target. The description is as above. The source holds these as a separate data set.
For assay [4] the target is unchanged. As to the kind of experiment: phage ELISA, coated sEGFR-MMB.
For assay [5], the target named is T5, Human extracellular EGFR-His6 (sEGFR-His6) (human, UniProt P00533 25-645).
T5 construct: Monomeric, expressed in HEK293E, glycosylated; also called sEGFR-6×His; monomeric sEGFR
As to the kind of experiment: phage ELISA, coated sEGFR-His6.

The next assay addresses T6, Control-MMB (CNTO 360) (Homo sapiens (Human), UniProt P0DOX5 111-449 = IgG part).
T6 construct: Described as human IgG1 heavy chain dimer absent the variable and most of the CH1 domains; also called blank mimetibody scaffold protein
As to the kind of experiment: phage ELISA on coated Control-MMB [A].

The target in a further assay is T7, Streptavidin.
T7 construct: also called Streptavidin alone; SA
The assay can be described thus: phage ELISA on streptavidin alone [C].

Drawing on patent US20100151003A1 (Janssen / Centocor, published 2010), this text covers binding result and ELISA signal for 14 molecules.

Like-named read-outs stand apart in the source and are kept apart here. Bridges are numbered along the chain shown (N, C = ends). Where no end group is shown, it is not given here.

T3 sequence (chain, as listed by the source limits assumed): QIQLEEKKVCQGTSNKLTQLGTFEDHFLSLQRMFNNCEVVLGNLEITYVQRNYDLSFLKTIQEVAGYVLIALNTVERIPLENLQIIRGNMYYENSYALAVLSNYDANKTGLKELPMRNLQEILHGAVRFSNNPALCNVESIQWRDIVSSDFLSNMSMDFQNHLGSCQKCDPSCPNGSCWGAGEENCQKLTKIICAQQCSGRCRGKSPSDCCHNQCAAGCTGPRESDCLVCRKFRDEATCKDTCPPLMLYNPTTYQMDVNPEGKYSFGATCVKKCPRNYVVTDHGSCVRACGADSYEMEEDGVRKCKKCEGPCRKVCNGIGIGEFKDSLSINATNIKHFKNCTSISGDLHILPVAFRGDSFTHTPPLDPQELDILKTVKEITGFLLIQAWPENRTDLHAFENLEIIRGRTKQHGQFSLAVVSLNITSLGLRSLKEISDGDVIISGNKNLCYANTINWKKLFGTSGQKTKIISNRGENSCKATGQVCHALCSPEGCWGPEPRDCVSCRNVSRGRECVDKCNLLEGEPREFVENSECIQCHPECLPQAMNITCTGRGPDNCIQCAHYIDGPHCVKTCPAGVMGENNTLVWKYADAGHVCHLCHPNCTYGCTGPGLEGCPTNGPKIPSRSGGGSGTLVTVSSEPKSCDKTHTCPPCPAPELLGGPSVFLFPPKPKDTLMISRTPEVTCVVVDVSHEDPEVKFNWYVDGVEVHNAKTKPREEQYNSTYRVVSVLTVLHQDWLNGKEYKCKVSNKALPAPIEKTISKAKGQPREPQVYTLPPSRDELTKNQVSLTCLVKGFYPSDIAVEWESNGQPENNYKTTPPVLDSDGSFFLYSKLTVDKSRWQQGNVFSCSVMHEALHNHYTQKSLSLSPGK
T1 sequence (chain, as listed by the source limits assumed): as above

B1: phage P145 (pIII CNL5) (peptide)
chain: AGVLCHRYYHPICYTGG
notes: Tested as whole phage displaying the peptide on pIII; also called PP145; PHPEP145; not shown: M13 phage coat protein pIII, mature (TVESC...)
As to B1, the binding result (in [1]; with b-sEGFR-strep; with biotinylated sEGFR-MMB; in the assay with biotinylated sEGFR-His6) was “binds” each time.

B2: S20 library phage hit SEQ ID NO: 45 (peptide)
chain: GGGDSCCSFLTDGTVVCSL
notes: Tested as whole phage, pIX phagemid display
In turn, B2 gave an ELISA signal in assay [2] of 9540 units.

B3: S20 library phage hit SEQ ID NO: 47 (peptide)
chain: GGGSVCVGTAFPGWMVCGP
notes: as for B2
B3 yielded an ELISA signal in assay [2] of 4770 units.

B4: phage P178 (pIX S17) (peptide)
peptide: GGGRWCYFWWITICELGGGSGGSGG
modifications: disulfide 6-14
notes: Tested as whole phage, pIX phagemid display; also called PP178; not shown: M13 coat protein pIX (display carrier at the C end)
The molecule B4 gave an ELISA signal in assay [3] of 7910 units.

B5: S20 library phage hit SEQ ID NO: 46 (peptide)
chain: GGGYICTPSDIDSWYICYL
notes: as for B2
In [2], B5 registered an ELISA signal of 6620 units.

B6: S20 library phage hit SEQ ID NO: 44 (peptide)
chain: GGGWMCFLEGYGASLMCQC
notes: as for B2
With B6, the ELISA signal in assay [2] was found to be 4800 units.

B7: S20 library phage hit SEQ ID NO: 49 (peptide)
chain: GGGLLCATTSFRDWFVCFT
notes: as for B2
Molecule B7 came in with an ELISA signal in assay [2] of 4510 units.

B8: phage P193 (pIII CNL1-11) (peptide)
chain: AGSYYWGYTVDIRRGG
notes: Tested as whole phage displaying the peptide on pIII; also called PHPEP193; not shown: M13 phage coat protein pIII, mature (TVESC...)
Turning to B8, the binding result in [4] is on record as “binds”.

B9: phage P177 (pIX S16) (peptide)
peptide: GGGDACTMVFLWCSLGGGSGGSGG
modifications: disulfide 6-13
notes: Tested as whole phage, pIX phagemid display; also called PP177; not shown: M13 coat protein pIX (display carrier at the C end)
In turn, B9 had an ELISA signal in [3] of 8660 units.

B10: phage P143 (pIII CNL5) (peptide)
chain: AGVLCSNFYHPLCHSGG
notes: Tested as whole phage displaying the peptide on pIII; also called PP143; not shown: M13 phage coat protein pIII, mature (TVESC...)
Consider B10, for which the binding result (in assay [1]; with b-sEGFR-strep; with biotinylated sEGFR-MMB; in the assay with biotinylated sEGFR-His6) was “binds” throughout.

B11: phage P146 (pIII CNL5) (peptide)
chain: AGTLCRSFFHPLCYAGG
notes: Tested as whole phage displaying the peptide on pIII; also called PP146; PHPEP146; not shown: M13 phage coat protein pIII, mature (TVESC...)
For the molecule B11, the binding result (in [1]; in the assay with b-sEGFR-strep; in the assay with biotinylated sEGFR-MMB; in the assay with biotinylated sEGFR-His6) was “binds” throughout.

B12: S20 library phage hit SEQ ID NO: 43 (peptide)
chain: GGGPTCDSATRRVLTICAD
notes: as for B2
As for B12, in assay [2], the ELISA signal worked out at 5420 units.

B13: phage P194 (pIII CNL1-11) (peptide)
chain: AGSECFPLAPDWLSCILGG
notes: Tested as whole phage displaying the peptide on pIII; also called PHPEP194; not shown: M13 phage coat protein pIII, mature (TVESC...)
Consider B13, for which the binding result in [4] and in assay [5] was “binds” throughout.

B14: phage P176 (pIX S20) (peptide)
chain: GGGKTCVSTTFDLWFVCFA
modifications: disulfide 6-17; also: displayed on whole phage via pIX
notes: Tested as whole phage, pIX phagemid display; also called PP176
As for B14, the binding result with Control-MMB (CNTO 360) and with Streptavidin was “no binding” each time. In assay [2], this molecule displayed an ELISA signal of 37400 units.
